In ChEMBL document CHEMBL2074368, “Kinetic analysis of calcein and calcein-acetoxymethylester efflux mediated by the multidrug resistance protein and P-glycoprotein” (Biochemistry, 1998) one finds Km data, which are given here for one protein.

Substrate in data set [1]: CC(=O)OCOC(=O)CN(CC(=O)OCOC(C)=O)Cc1c(OC(C)=O)ccc2c1Oc1c(ccc(OC(C)=O)c1CN(CC(=O)OCOC(C)=O)CC(=O)OCOC(C)=O)C21OC(=O)c2ccccc21
Briefly: (§1) TP_TRANSPORTER: efflux in GLC4/ADR cells. It is filed as functional, cell-based, GLC-4/ADR.

Substrate in data set [2]: O=C(O)CN(CC(=O)O)Cc1cc2c(cc1O)Oc1cc(O)c(CN(CC(=O)O)CC(=O)O)cc1C21OC(=O)c2ccccc21
The data set is described as §1. The data set is classed as functional, cell-based, GLC-4/ADR.

B1: Multidrug resistance-associated protein 1 (Homo sapiens) (protein)
chain: MALRGFCSADGSDPLWDWNVTWNTSNPDFTKCFQNTVLVWVPCFYLWACFPFYFLYLSRHDRGYIQMTPLNKTKTALGFLLWIVCWADLFYSFWERSRGIFLAPVFLVSPTLLGITMLLATFLIQLERRKGVQSSGIMLTFWLVALVCALAILRSKIMTALKEDAQVDLFRDITFYVYFSLLLIQLVLSCFSDRSPLFSETIHDPNPCPESSASFLSRITFWWITGLIVRGYRQPLEGSDLWSLNKEDTSEQVVPVLVKNWKKECAKTRKQPVKVVYSSKDPAQPKESSKVDANEEVEALIVKSPQKEWNPSLFKVLYKTFGPYFLMSFFFKAIHDLMMFSGPQILKLLIKFVNDTKAPDWQGYFYTVLLFVTACLQTLVLHQYFHICFVSGMRIKTAVIGAVYRKALVITNSARKSSTVGEIVNLMSVDAQRFMDLATYINMIWSAPLQVILALYLLWLNLGPSVLAGVAVMVLMVPVNAVMAMKTKTYQVAHMKSKDNRIKLMNEILNGIKVLKLYAWELAFKDKVLAIRQEELKVLKKSAYLSAVGTFTWVCTPFLVALCTFAVYVTIDENNILDAQTAFVSLALFNILRFPLNILPMVISSIVQASVSLKRLRIFLSHEELEPDSIERRPVKDGGGTNSITVRNATFTWARSDPPTLNGITFSIPEGALVAVVGQVGCGKSSLLSALLAEMDKVEGHVAIKGSVAYVPQQAWIQNDSLRENILFGCQLEEPYYRSVIQACALLPDLEILPSGDRTEIGEKGVNLSGGQKQRVSLARAVYSNADIYLFDDPLSAVDAHVGKHIFENVIGPKGMLKNKTRILVTHSMSYLPQVDVIIVMSGGKISEMGSYQELLARDGAFAEFLRTYASTEQEQDAEENGVTGVSGPGKEAKQMENGMLVTDSAGKQLQRQLSSSSSYSGDISRHHNSTAELQKAEAKKEETWKLMEADKAQTGQVKLSVYWDYMKAIGLFISFLSIFLFMCNHVSALASNYWLSLWTDDPIVNGTQEHTKVRLSVYGALGISQGIAVFGYSMAVSIGGILASRCLHVDLLHSILRSPMSFFERTPSGNLVNRFSKELDTVDSMIPEVIKMFMGSLFNVIGACIVILLATPIAAIIIPPLGLIYFFVQRFYVASSRQLKRLESVSRSPVYSHFNETLLGVSVIRAFEEQERFIHQSDLKVDENQKAYYPSIVANRWLAVRLECVGNCIVLFAALFAVISRHSLSAGLVGLSVSYSLQVTTYLNWLVRMSSEMETNIVAVERLKEYSETEKEAPWQIQETAPPSSWPQVGRVEFRNYCLRYREDLDFVLRHINVTINGGEKVGIVGRTGAGKSSLTLGLFRINESAEGEIIIDGINIAKIGLHDLRFKITIIPQDPVLFSGSLRMNLDPFSQYSDEEVWTSLELAHLKDFVSALPDKLDHECAEGGENLSVGQRQLVCLARALLRKTKILVLDEATAAVDLETDDLIQSTIRTQFEDCTVLTIAHRLNTIMDYTRVIVLDKGEIQEYGAPSDLLQQRGLFYSMAKDAGLV
In the case of B1, the Km in data set [1] stood at 0.05 µM; in data set [2], 268 µM.

As usually defined, the Km is the substrate concentration at which the rate is half of its maximum.
